Source: the supplement of paper PMC12042874
± gives the uncertainty stated by the source.

assay: amyloid nucleation score (Sup35N fusion, yeast selection) (log enrichment); library NNK2; higher = more nucleation; inactive = no reads after selection
Method in brief: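 Three technical output replicates were used for random libraries. Psi-negative yeast expressing peptides of 20 random codons fused to Sup35N were induced with 100 μM copper sulfate for 24 hours and grown 7 days at 30°C on medium lacking adenine and uracil, and input and output plasmid inserts were Illumina-sequenced, excluding sequences with under 100 input reads. The nucleation score is the DiMSum log enrichment of output over input reads, centred on the mode score of non-aggregating sequences.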

Substance | amyloid nucleation score
STDYMGPAY | -0.617 ± 0.37
STESARSKRGMSSPMNSIRA | 0.029 ± 0.32
STMSFFSIGKLPEIVVGDSY | -1.24 ± 0.75
STNYQLSLFR | 3.96 ± 0.086
STPIHDIFTPTLDRV | -0.08 ± 0.5
STQRIEDIEIVEQKCPACIG | 0.754 ± 0.3
STSFIL | -0.718 ± 0.76
STSLVTIPCGGFGFKYSANP | 0.171 ± 0.33
STSQWYRVLVRVVCSPM | 0.331 ± 0.4
STSSNGSEYHCLSI | 1.05 ± 0.44
STSSSLAR | 0.867 ± 0.22
STTLSEIMIYAVTGG | -0.45 ± 0.31
STTWNSLELTTDNAAGAAII | 2.95 ± 0.09
STVKVLVPEVHWSKATPRNY | 2.99 ± 0.14
STVTELLRYPAHNFGEVHIL | 4.702 ± 0.047
STWDGWGFSWISFL | -0.635 ± 1
STYSPSSPHMLSYPFWARTP | -0.269 ± 0.76
SVCSKSGNFYGVVNMGL | -0.161 ± 0.79
SVFCCLYLYSG | 9.035 ± 0.023
SVFLSNLFSYRSADNYGMAR | inactive
SVFVNCNHWYIYSPWPSKRN | 8.715 ± 0.047
SVGQMQLT | 0.707 ± 0.35
SVIISVVD | -0.851 ± 0.35
SVIRSCVNIDSLVKVEWGAS | 6.717 ± 0.052
SVKRHPFRTVKLGVSVLLWV | 1 ± 0.18

Substance | amyloid nucleation score
SVLAAP | inactive
SVLKYS | -0.334 ± 0.63
SVLMDYNSKWWDRMSSFIRP | -0.272 ± 0.48
SVQKIEIMYYRRKTGVYEFE | 3.4 ± 0.055
SVYLGCRCHVMFVRLTVAFV | inactive
SVYNWYIIPANCEQDLCM | 5.54 ± 0.095
SVYQVRLLFGDLRANKAVVS | -0.494 ± 0.56
SWAQRCDGGMYMRDCWLMGS | 0.361 ± 0.33
SWFSSNFFFY | 5.27 ± 0.058
SWFVRLGTRNWYTLRRVVIG | -0.315 ± 0.29
SWGTRV | inactive
SWGYNRF | inactive
SWKGHIISSAHQQLESPSLW | 0.345 ± 0.23
SWKWYRS | 0.157 ± 1
SWMIYLCRVGTITRMQDWLW | -0.445 ± 0.35
SWNKGIHGGSTANCWFIVIK | 0.029 ± 0.61
SWPVRFQLNATGSPVGRLWT | -0.334 ± 0.76
SWWTMWLLTRLRNSSSWGMT | 0.011 ± 0.23
SYCILVLNL | 6.445 ± 0.045
SYCTR | -0.645 ± 0.56
SYCVWCLYTSLLTLGQSASI | 0.163 ± 0.33
SYECPMHTLPVHSRSAYRST | 0.878 ± 0.27
SYFLYLGLNPVYQWYDSFVV | 1.47 ± 0.14
SYGFFMVWIEGYFLVMASRI | inactive
SYHRS | 0.086 ± 0.24

Substance | amyloid nucleation score
SYIGFVSIGSNMNRCSFDKF | -0.116 ± 0.29
SYIWSECRTNMIVWASNTLK | 3.81 ± 0.063
SYMDE | 4.33 ± 0.06
SYRSRVQYLCGNSMCLHAPI | 5.15 ± 0.098
SYSQGD | 0.674 ± 0.53
SYTGS | -0.019 ± 0.34
SYTMVTLPSPSL | -0.224 ± 0.23
SYVVVAPLCQCTTVSGRRGI | 1.04 ± 0.59
SYYELGNDLSACYFYCHRVA | -0.253 ± 0.79
SYYFGPHWRVYTAFARFRI | inactive
TAIYENYCMSVMWMLVVGRI | -0.277 ± 0.3
TASIDKRVTGSSREWWRSRQ | 0.357 ± 0.66
TASSLCIQVGYVIFLY | 8.072 ± 0.032
TCARFVGMEM | 1.22 ± 0.27
TCFTSCSG | 0.263 ± 0.37
TCLAKLLFCKSTSKDRV | 0.063 ± 1.1
TCRLRFGCEYGQTFSCVSWA | 0.531 ± 0.64
TCSCSLVFYMILARG | -0.053 ± 0.63
TCSGLCYIHWACIIGKDNYM | 4.9 ± 0.087
TCVQLKNAIFQVSWYILLQG | -0.322 ± 0.65
TCYLGPWCPIHDTRIRPGWV | 0.698 ± 0.21
TDCFQFS | 0.713 ± 0.58
TDGDRFSCRVKWNRHEDQRT | 0.463 ± 0.24
TDIRTSGDERWAFDSMRTGD | 0.701 ± 0.37
TDLIPRQKKITLWFIS | 0.159 ± 0.53

Substance | amyloid nucleation score
TDLNHACCSNPLSF | -0.468 ± 0.61
TDLVDPGGTKHRKDS | 0.523 ± 0.53
TDVTYRNVVVSSRKFSGNRN | 8.149 ± 0.073
TEQICGNMWSLYESFNFINS | -0.474 ± 1.1
TESVPSWNGMKNMYEDNQLK | 1.54 ± 0.55
TFAPDLS | -0.053 ± 0.56
TFAVENHFFMEVLRRKVLIG | inactive
TFCVRQLYLSML | 0.833 ± 0.2
TFDFDNVAVYYALSGTGDSW | -0.516 ± 0.34
TFDLSWLVHVPDNCCHLLCF | -0.183 ± 0.28
TFFDGSCLVRLSWAQLEFLT | -0.471 ± 0.41
TFFYYYCMCSRTL | 7.83 ± 0.061
TFGYCISLMTLTFVH | -0.239 ± 0.28
TFHRS | 1.05 ± 0.29
TFIHN | -0.161 ± 0.19
TFNKLYYSSVACLCRLGHSR | 9.32 ± 0.055
TFRIERSVGWYCNRASYSCK | 1.02 ± 0.21
TFRYFGDWNLQRGML | 0.85 ± 0.52
TFSLLGL | 4.1 ± 0.064
TFSTYSFLFVKTVI | -0.417 ± 0.2
TFSVSSYRNLP | -0.06 ± 0.79
TFVGVLNQTNH | 2.73 ± 0.13
TFVITLNGHSCQVGTITPRN | 8.012 ± 0.04
TFVKRIRYCFYLS | 6.386 ± 0.023
TFWLIRTSHRGYRYEKVCTY | -0.017 ± 0.49

Substance | amyloid nucleation score
TGALVNM | 0.13 ± 1.1
TGFMVTFASST | 0.02 ± 0.22
TGHRTRVQTELLAFIAQVN | -0.526 ± 0.63
TGHWMGPSDYRQRVCH | inactive
TGLIGEPYGWDRSTTGF | 0.17 ± 0.43
TGVKRIMSGSIIFPFLAVSF | -0.751 ± 1.1
THIAVIGISGTDEENLKLGR | 6.439 ± 0.026
THIFVWNHFNLLRYTTKFLP | -0.304 ± 0.4
THLSWQKMWFLIVHALKICL | inactive
THLWVNSFMIDPFRSESAAT | -0.499 ± 0.54
THPEFSIPIGRHHYGG | -0.836 ± 0.29
THWMKRRVVA | 1.33 ± 0.17
TIACLEINPHAMSDYMRLCH | -0.842 ± 0.49
TICGSCT | 0.045 ± 0.79
TIDFWVRFYVRFYSRDGFYY | -2.33 ± 0.78
TIDKISCNIRLRPVYMLLNA | 0.342 ± 0.56
TIEGALSSS | 0.931 ± 0.22
TIFSNFGSMSLIGHGIEQVI | -1.39 ± 0.76
TIILG | -0.637 ± 0.27
TIMNYTGCYFGPVGPDRDLG | 6.824 ± 0.042
TIPVRPTMEYCTQLLTLLQ | 0.293 ± 0.47
TIQGLFRFSADVRTCAFMGS | 2.33 ± 0.15
TISFELSGMGIPSLWICGSR | 0.252 ± 0.65
TITILV | 0.089 ± 0.23
TIVYWSTTRTTAPGDDRESV | 5.31 ± 0.062

Substance | amyloid nucleation score
TIYRSSSNNSQEHSLNLMFG | inactive
TKMYVD | -0.573 ± 1.1
TKSGCRGIGHSSVVSS | 1.19 ± 0.37
TLAWGSGELTTLTADEDLPS | 0.58 ± 0.19
TLAYMNGVA | -0.928 ± 0.63
TLCLMVVFKSRYCSFRIHMM | 0.21 ± 1
TLDIALKGG | 0.271 ± 0.25
TLFLSMLLMASSCYMTCCGD | -0.119 ± 0.55
TLGSLLLLMSWVEGLQKHLI | 0.888 ± 0.48
TLHCRSILGELLYVDMVKDD | -0.297 ± 0.46
TLMIYCFFSGFLKGVWMM | 0.053 ± 0.8
TLMKVRVYSSYGKVHVGSLA | 5.03 ± 0.08
TLNTNMRSLLRI | inactive
TLSTGIFLLHLAYSSLSIDS | 0.637 ± 0.35
TLTKKLHIGMLYPYHTLMLR | -0.596 ± 0.76
TLVHSKF | 3.01 ± 0.089
TLVNCVSMWWALHSVANGNG | 3.3 ± 0.11
TLVVRGHC | 2.14 ± 0.11
TLYDGWLVGPVERRFVIRAL | 1.08 ± 0.21
TLYMFMPMLFNVIPEVRWPP | 9.03 ± 0.071
TLYRPMTIMFMRVHHEVRWF | 6.195 ± 0.04
TMKWLCN | 4.69 ± 0.054
TMNIKLWGAGTRRMFEMEPG | 2.35 ± 0.22
TMQIFMKSMINSGICSTYHL | 3.47 ± 0.08
TMYWTAMMISGDLACQIGSR | 6.127 ± 0.046

Substance | amyloid nucleation score
TNATSGGHMLMIYEDFNVYL | 2.49 ± 0.069
TNCINM | 5.49 ± 0.055
TNCSIMGTFSYFNDCSLGGT | 5.247 ± 0.051
TNEAIEMS | inactive
TNIFR | -0.599 ± 1
TNLMAFLRPFAVVTRND | -0.355 ± 0.76
TNRIGFFLFCTAV | -0.049 ± 0.76
TNSDSSTQKVIVMSLNAVVP | 6.11 ± 0.049
TNSMNGFFFR | -1.81 ± 1
TNWVDWESYISCGGNGFGGC | -0.92 ± 0.39
TPAWCYPTGIGLIPPEWLGQ | 0.605 ± 0.23
TPDGIRLSVAHCS | 0.764 ± 0.24
TPFGTVECTQLLLSTSRWLF | -0.26 ± 1
TPLLSWVTLFCCLGSPCLGT | 0.176 ± 0.76
TPPWQGSDWCGNHCNWQGPM | 0.247 ± 0.8
TPWSSVWSVALSGARMGPRS | 3.71 ± 0.079
TPYGFSFRTRYMKQADLALS | -0.315 ± 0.33
TQFISFRYYHNVDEIHYVVN | inactive
TQIFYSLRILLVDKLVSCGA | -0.787 ± 0.39
TQRVGGIRW | 0.105 ± 0.24
TRCFQILPCYRI | -0.624 ± 0.76
TRCKGHYVWSLQSFRCSIVK | -0.512 ± 0.78
TRDCLYFVLLILIIYLFGLR | 3.12 ± 0.14
TRDIELWLGWNRKEVCVLLE | inactive
TRLDVQLGHGIGSV | 0.092 ± 1.1
